Measured values: publication doi:10.1101/2024.12.13.628329 (bioRxiv, 2024)

Molecular target: the molecule itself
Test: SEC

B1: TNFR1^R347A death domain (domain or fragment, UniProt P19438 356-441, looked up)
chain: PATLYAVVENVPPLRWKEFVARLGLSDHEIDRLELQNGRCLREAQYSMLATWRRRTPRREATLELLGRVLRDMDLLGCLEDIEEAL
  stoichiometry N: 2
